Laboratory results: US9073973B2, “Dye conjugates of template-fixed peptidomimetics” (Polyphor LTD., priority 2005, dated 2015)
Numbered stars: 1 amine (or outer) side, 2 acyl side, 3 side chain; on linkers, the order of the positions; unused ones are H or OH. Bridge positions count the residues as written; N and C are the ends. Square brackets hold non-standard residues; d marks the D form. Primed or numbered codes have the meaning given here. Side chains are listed from the residue outwards. Peptide text beside a SMILES is read from it. * marks the point of attachment. FITC′ = 5(6)-fluoresceinthioureido on Lys N-epsilon (Lys(FITC)); Pro(trans-4-NH2) = O=C([C@@H]1C[C@@H](N[*:3])CN1[*:1])[*:2]; 5FAM = O=C1OC2(c3ccc(O)cc3Oc3cc(O)ccc32)c2ccc(C(=O)*)cc21; Dansyl = CN(C)c1cccc2c(S(=O)(=O)*)cccc12; 2Nal = N[C@@H](Cc1ccc2ccccc2c1)C(=O)O; Cit = NC(=O)NCCC[C@H](N)C(=O)O; Ahx = NCCCCCC(=O)O

B1: Example 4 (peptide)
peptide: cyclo(YR[Cit]CRG[dP]RRWCY[Cit]Q)
modifications: disulfide 4-11; not fully specified (C-terminus)
notes: the dye sits on the template; also called Ex. 4

Tested on: human red blood cells (hRBC)
Test: Hemolysis
Type: cell-based
Details: percent hemolysis; 100 μM peptide, 20% v/v hRBC, 1 hour at 37° C.
Protocol: The peptides were tested for their hemolytic activity against human red blood cells (hRBC). Fresh hRBC were washed three times with phosphate buffered saline (PBS) by centrifugation for 10 min at 2000×g. Peptides at a concentration of 100 μM were incubated with 20% v/v hRBC for 1 hour at 37° C. The final erythrocyte concentration was approximately 0.9×10^9 cells per ml. A value of 0% resp. 100% cell lysis was determined by incubation of the hRBC in the presence of PBS alone and respectively 0.1% Triton X-100 in H2O. The samples were centrifuged and the supernatant was 20-fold diluted in PBS buffer and the optical density (OD) of the sample at […] was measured. The 100% lysis value (0D540H20) gave an OD540 of approximately 1.3-1.8. Percent hemolysis was calculated as follows: (0D540peptide/OD540H20)×100%.

How did the “Hemolysis at 100 μM” value turn out when `CN(C)c1cccc2c(S(=O)(=O)NCCCC[C@@H]3NC(=O)[C@H](CCCNC(N)=O)NC(=O)[C@H](Cc4ccc(O)cc4)NC(=O)[C@@H]4CSSC[C@H](NC(=O)[C@H](CCCNC(N)=O)NC(=O)[C@H](CCCNC(=N)N)NC(=O)[C@H](Cc5ccc(O)cc5)NC(=O)[C@@H]5CCCN5C(=O)[C@H]5CCCN5C3=O)C(=O)N[C@@H](CCCNC(=N)N)C(=O)NCC(=O)N3CCC[C@@H]3C(=O)N[C@@H](CCCNC(=N)N)C(=O)N[C@@H](CCCNC(=N)N)C(=O)N[C@@H](Cc3c[nH]c5ccccc35)C(=O)N4)cccc12` [Example 1] (cyclo(YR[Cit]CRG[dP]RRWCY[Cit]K(Dansyl)[dP]P); disulfide 4-11) was run?
The value was 0.

Biological target: T1, human CXCR4 (human, UniProt P61073 1-352)
Test: cell-based or functional assay
Details: not given

T1 sequence (P61073 whole entry): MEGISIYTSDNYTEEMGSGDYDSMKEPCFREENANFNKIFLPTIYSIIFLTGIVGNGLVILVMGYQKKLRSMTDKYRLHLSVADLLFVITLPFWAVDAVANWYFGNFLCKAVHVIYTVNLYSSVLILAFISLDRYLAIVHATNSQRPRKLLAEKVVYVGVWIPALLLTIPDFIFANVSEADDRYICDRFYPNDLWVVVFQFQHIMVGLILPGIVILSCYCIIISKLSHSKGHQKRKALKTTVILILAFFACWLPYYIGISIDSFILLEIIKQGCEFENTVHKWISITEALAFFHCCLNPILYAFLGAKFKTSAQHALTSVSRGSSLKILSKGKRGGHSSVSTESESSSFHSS

How did the “IC50 (nM) Ca2+ assay (calcium mobilization induced by 10 nM SDF-1)” value turn out when cyclo(YRTCRA[dP]RRYCYQK(FITC′)) (disulfide 4-11; not fully specified (C-terminus)) [Example 16] was run?
The value was 4.2 nM.

With cyclo(KR[Cit]CRG[dP]RRWCY[Cit]Q) (disulfide 4-11; not fully specified (residue 1, C-terminus)) [Example 3] as the molecule, how does the “IC50 (nM) Ca2+ assay (calcium mobilization induced by 10 nM SDF-1)” value read?
Its value is 16.4 nM.

For cyclo(YRKCRG[dP]RRWCY[Cit]Q) (disulfide 4-11; not fully specified (residue 3, C-terminus)) [Example 5], which “IC50 (nM) Ca2+ assay (calcium mobilization induced by 10 nM SDF-1)” value is on record?
Its value is 4.9 nM.

For cyclo(YHYCSA[dP]FRYCYQK(FITC′)) (disulfide 4-11; not fully specified (C-terminus)) [Example 18], which “IC50 (nM) Ca2+ assay (calcium mobilization induced by 10 nM SDF-1)” value is on record?
Its value is > 500 nM.

With cyclo(YRTCRG[dP]RR[2Nal]CY[Cit]K) (disulfide 4-11; not fully specified (residue 14, C-terminus)) [Example 6] as the molecule, how does the “IC50 (nM) Ca2+ assay (calcium mobilization induced by 10 nM SDF-1)” value read?
The value was 37.4 nM.

How did the “IC50 (nM) Ca2+ assay (calcium mobilization induced by 10 nM SDF-1)” value turn out when cyclo(YK[Cit]CRG[dP]RRWCY[Cit]Q) (disulfide 4-11; not fully specified (residue 2, C-terminus)) [Example 9] was run?
Its value is 500 nM.

How did the “IC50 (nM) Ca2+ assay (calcium mobilization induced by 10 nM SDF-1)” value turn out when cyclo(YRTCRG[dP]RRYCYQK(FITC′)) (disulfide 4-11; not fully specified (C-terminus)) [Example 15] was run?
Its value is 6 nM.

How did the “IC50 (nM) Ca2+ assay (calcium mobilization induced by 10 nM SDF-1)” value turn out when cyclo(YR[Cit]CRG[dP]RRWCYKQ) (disulfide 4-11; not fully specified (residue 13, C-terminus)) [Example 8] was run?
Its value is 9.7 nM.

For cyclo(HHQCSA[dP]FRYCYQK(FITC′)) (disulfide 4-11; not fully specified (C-terminus)) [Example 11], which “IC50 (nM) Ca2+ assay (calcium mobilization induced by 10 nM SDF-1)” value is on record?
The value was 27.5 nM.

cyclo(YRTCRG[dP]RR[2Nal]CY[Cit]K(FITC′)) (disulfide 4-11; not fully specified (C-terminus)) [Example 7] was tested. Which “IC50 (nM) Ca2+ assay (calcium mobilization induced by 10 nM SDF-1)” value did it give?
The value was 0.9 nM.

For cyclo(HHYCRA[dP]FRFCYQK(FITC′)) (disulfide 4-11; not fully specified (C-terminus)) [Example 13], which “IC50 (nM) Ca2+ assay (calcium mobilization induced by 10 nM SDF-1)” value is on record?
Its value is 29 nM.

How did the “IC50 (nM) Ca2+ assay (calcium mobilization induced by 10 nM SDF-1)” value turn out when cyclo(YRYCRA[dP]FRFCYQK(FITC′)) (disulfide 4-11; not fully specified (C-terminus)) [Example 17] was run?
Its value is 21.8 nM.

For cyclo(SHYCRA[dP]FRFCYQK(FITC′)) (disulfide 4-11; not fully specified (C-terminus)) [Example 14], which “IC50 (nM) Ca2+ assay (calcium mobilization induced by 10 nM SDF-1)” value is on record?
The value was 30.4 nM.

For B1, which “IC50 (nM) Ca2+ assay (calcium mobilization induced by 10 nM SDF-1)” value is on record?
The value was 13.4 nM.

How did the “IC50 (nM) Ca2+ assay (calcium mobilization induced by 10 nM SDF-1)” value turn out when cyclo(LHTCRA[dP]RRYCYQK(FITC′)) (disulfide 4-11; not fully specified (C-terminus)) [Example 12] was run?
Its value is 6.9 nM.

cyclo(YR[Cit]CRG[dP]RRWCY[Cit]K(Dansyl)) (disulfide 4-11; not fully specified (C-terminus)) [Example 1] was tested. Which “IC50 (nM) Ca2+ assay (calcium mobilization induced by 10 nM SDF-1)” value did it give?
The value was 122 nM.

Tested on: HELA cells
Test: Cytotoxicity assay (MTT reduction)
Type: cell-based
Details: 48 hours incubation, peptide 12.5, 25 and 50 μM
Protocol: The cytotoxicity of the peptides to HELA cells (Acc57) and COS-7 cells (CRL-1651) was determined using the MTT reduction assay [see ref. 5 and 6, below]. Briefly the method was as follows: HELA cells and COS-7 cells were seeded at 7.0·10^3 and, respectively, 4.5·10^3 cells per well and grown in 96-well microtiter plates for 24 hours at 37° C. at 5% CO2. At this point, time zero (Tz) was determined by MTT reduction (see below). The supernatant of the remaining wells was discarded, and fresh medium and the peptides in serial dilutions of 12.5, 25 and 50 μM were pipetted into the wells. Each peptide concentration was assayed in triplicate. Incubation of the cells was continued for 48 hours at 37° C. at 5% CO2. Wells were then washed once with PBS, and subsequently 100 μl MTT reagent (0.5 mg/mL in medium RPMI1640 and, respectively, DMEM) was added to the wells. This was incubated at 37° C. for 2 hours and subsequently the medium was aspirated and 100 μl isopropanol was added to each well. The absorbance at 595 nm of the solubilized product was measured (OD595peptide). For each concentration averages were calculated from triplicates. The percentage of growth was calculated as follows: (OD595peptide-OD595Tz-OD595Empty well)/(OD595Tz-OD595Empty well)×100% and was plotted for each peptide concentration. […]

For `CN(C)c1cccc2c(S(=O)(=O)NCCCC[C@@H]3NC(=O)[C@H](CCCNC(N)=O)NC(=O)[C@H](Cc4ccc(O)cc4)NC(=O)[C@@H]4CSSC[C@H](NC(=O)[C@H](CCCNC(N)=O)NC(=O)[C@H](CCCNC(=N)N)NC(=O)[C@H](Cc5ccc(O)cc5)NC(=O)[C@@H]5CCCN5C(=O)[C@H]5CCCN5C3=O)C(=O)N[C@@H](CCCNC(=N)N)C(=O)NCC(=O)N3CCC[C@@H]3C(=O)N[C@@H](CCCNC(=N)N)C(=O)N[C@@H](CCCNC(=N)N)C(=O)N[C@@H](Cc3c[nH]c5ccccc35)C(=O)N4)cccc12` [Example 1] (cyclo(YR[Cit]CRG[dP]RRWCY[Cit]K(Dansyl)[dP]P); disulfide 4-11), which “Cytotoxicity LC50/GI50 Hela cells” value is on record?
Its value is 31.

Biological target: T1, human CXCR4
Test: FACS at 530 nm, CXCR4 expressing cells against untransfected cells incubated with the dye conjugate
Details: not given
Protocol: (§1) CXCR4 expressing cells (5 ×10^6/ml) [see references 1, 2 and 3, below] were incubated for 1 hour at 4° C. in a buffer containing HBSS+1% BSA with or without peptidomimetic-dye conjugates at the appropriate concentrations. After this incubation, the cells were washed twice in the same buffer and resuspended at 4 ×10^6/ml in PBS and kept on ice until measurements were made. All measurements were made on a BD FACSCalibur™ instrument [see ref 4 below] at a wavelength of 530 nm and a total of 10,000 events were counted for each condition. Unlabeled CXCR4 cells and untransfected 300-19 cells were used to establish an appropriate gate for scoring positive and negative events. Four-parameter curve fitting was made from plots of % gated cells vs. concentration of fluorescent compound using Grafit (Erithacus Software).
The dotted line plot is the histogram obtained from the CXCR4 expressing cells incubated with the compound. The shift to the right on the intensity scale indicates a ~5-fold increase in fluorescence with >80% of the cells being positive for peptidomimetic-dye conjugates.

Which “fold increase in fluorescence” value does the source give for B1 here?
Its value is ~5 fold.

Biological target: T2, CXCR4 expressing cells (Homo sapiens, UniProt P61073)
T2 construct: expressed in transfected cells; host or cells: 300-19 cells (mouse pre-B), CXCR4 transfected
Test: FACS analysis, labeling of CXCR4 expressing cells
Type: binding
Details: FIG. 1; FACS fluorescence intensity at 530 nm, 10,000 cells
Protocol: as §1, with “(5×10^6/ml)” for “(5 ×10^6/ml)”, “4×10^6/ml” for “4 ×10^6/ml”
(§2) The dotted line plot is the histogram obtained from the CXCR4 expressing cells incubated with the compound. The shift to the right on the intensity scale indicates a ˜5-fold increase in fluorescence with >80% of the cells being positive for peptidomimetic-dye conjugates.

T2 sequence (P61073 whole entry): as above

For `N=C(N)NCCC[C@@H]1NC(=O)[C@@H]2CSSC[C@H](NC(=O)[C@H](Cc3c[nH]c4ccccc34)NC(=O)[C@H](CCCNC(=N)N)NC(=O)[C@H](CCCNC(=N)N)NC(=O)[C@H]3CCCN3C(=O)CNC1=O)C(=O)N[C@@H](Cc1ccc(O)cc1)C(=O)N[C@@H](CCCNC(N)=O)C(=O)N[C@@H](CCC(N)=O)C(=O)N1CCC[C@@H]1C(=O)N1C[C@H](NC(=O)CCCCCNC(=O)c3ccc4c(c3)C(=O)OC43c4ccc(O)cc4Oc4cc(O)ccc43)C[C@H]1C(=O)N[C@@H](Cc1ccc(O)cc1)C(=O)N[C@@H](CCCNC(=N)N)C(=O)N[C@@H](CCCNC(N)=O)C(=O)N2` [Example 4] (cyclo(CRG[dP]RRWCY[Cit]Q[dP][Pro(trans-4-NH2)]([Ahx-5FAM])YR[Cit]); disulfide 1-8), which “increase in fluorescence (CXCR4 expressing vs untransfected cells)” value is on record?
Its value is ~5 fold.

Tested on: untransfected 300-19 cells
Test: FACS analysis, untransfected cells (non-specific binding)
Design: species or system mouse
Details: FIG. 1; FACS at 530 nm, 10,000 cells; background/non-specific binding
Protocol: as §1, with “(5×10^6/ml)” for “(5 ×10^6/ml)”, “4×10^6/ml” for “4 ×10^6/ml”
as §2

With `N=C(N)NCCC[C@@H]1NC(=O)[C@@H]2CSSC[C@H](NC(=O)[C@H](Cc3c[nH]c4ccccc34)NC(=O)[C@H](CCCNC(=N)N)NC(=O)[C@H](CCCNC(=N)N)NC(=O)[C@H]3CCCN3C(=O)CNC1=O)C(=O)N[C@@H](Cc1ccc(O)cc1)C(=O)N[C@@H](CCCNC(N)=O)C(=O)N[C@@H](CCC(N)=O)C(=O)N1CCC[C@@H]1C(=O)N1C[C@H](NC(=O)CCCCCNC(=O)c3ccc4c(c3)C(=O)OC43c4ccc(O)cc4Oc4cc(O)ccc43)C[C@H]1C(=O)N[C@@H](Cc1ccc(O)cc1)C(=O)N[C@@H](CCCNC(=N)N)C(=O)N[C@@H](CCCNC(N)=O)C(=O)N2` [Example 4] (cyclo(CRG[dP]RRWCY[Cit]Q[dP][Pro(trans-4-NH2)]([Ahx-5FAM])YR[Cit]); disulfide 1-8) as the molecule, how does the “cells binding compound (untransfected cells)” value read?
Its value is 0.7%.
